Results: US20240294661A1 (Genmab, published 2024)
Where a chain is given by its changes, count along the chain named.

B1: Anti-TF HuMab 111 (antibody, IgG1, V domains shown)
VH: QVQLVESGGGVVQPGRSLRLSCAGSGFTFNRYAMYWVRQAPGKGLDWVAVISNDGINKYYADSVKGRFTISRDNSKNTLYLQMNSLRAEDTAVYYCARDHTMVRGAFDYWGQGTLVTVSS
VL: EIVLTQSPATLSLSPGERATLSCRASQSVSSYLAWYQQKPGQAPRLLIYDASNRATGIPARFSGSGSGTDFTLTISSLEPEDFAVYYCQQRSNWPLTFGGGTKVEIK
notes: full length, fully human monoclonal IgG1,kappa
B2: HuMab-TF-111-vcMMAE (antibody, IgG1, V domains shown)
VH: B1 VH
VL: B1 VL
modifications: vcMMAE drug-linker alkylated to cysteines of the reduced antibody (positions not given)
notes: DAR 4.3 by RP-HPLC, 4.1 by HIC
B3: HuMab-TF-111-mcMMAF (antibody, IgG1, V domains shown)
VH: B1 VH
VL: B1 VL
modifications: mcMMAF drug-linker alkylated to cysteines of the reduced antibody (positions not given)
notes: DAR 4.1 by RP-HPLC, 4.2 by HIC
B4: Anti-TF HuMab 098 (antibody, IgG1, V domains shown)
VH: QVQLVQSGAEVRKPGSSVKVSCKASGGSFNNYPIFWVRQAPGQGFEWMGRIIPILGITAYAQKFQGRVTITADKSTSTAYMELNSLRSEDTAVYYCAGGDDLDAFDIWGQGTMVSVSS
VL: DIQMTQSPSSLSASVGDRVTITCRASQGISSWLAWYQQKPEKAPKSLIYAASSLQSGVPSRFSGSGSGTDFTLTISSLQPEDFATYYCQQYNSYPYTFGQGTKLEIK
notes: full length, fully human monoclonal IgG1,kappa; also called HuMab-TF-098
B5: HuMab-TF-011-vcMMAE (antibody, IgG1, V domains shown)
VH: EVQLLESGGGLVQPGGSLRLSCAASGFTFSNYAMSWVRQAPGKGLEWVSSISGSGDYTYYTDSVKGRFTISRDNSKNTLYLQMNSLRAEDTAVYYCARSPWGYYLDSWGQGTLVTVSS
VL: B4 VL with S9P, V15A, W32R
modifications: vcMMAE drug-linker alkylated to cysteines of the reduced antibody (positions not given)
notes: DAR 3.9 by RP-HPLC, 3.9 by HIC
B6: HuMab-TF-098-mcMMAF (antibody, IgG1, V domains shown)
VH: B4 VH
VL: B4 VL
modifications: mcMMAF drug-linker alkylated to cysteines of the reduced antibody (positions not given)
notes: DAR 4.0 by RP-HPLC, 3.9 by HIC
B7: HuMab-TF-013 (antibody, V domains shown)
VH: EVQLVQSGAEVKKPGESLKISCKGSGYSFTSYWIGWVRQMPGKGLEWMGIIYPGDSDTRYSPSFQGQVTISADKSISTAYLQWSSLKASDTAMYYCARIHRGAGYSSSWPGAFDIWGQGTMVTVSS
VL: B4 VL with S31R, N92D, Y94D, Y96I, K103R
B8: Anti-TF HuMab 011 (antibody, IgG1, V domains shown)
VH: B5 VH
VL: B4 VL with S9P, V15A, W32R
notes: full length, fully human monoclonal IgG1,kappa; also called HuMab-TF-011
B9: HuMab-TF-011-mcMMAF (antibody, IgG1, V domains shown)
VH: B5 VH
VL: B4 VL with S9P, V15A, W32R
modifications: mcMMAF drug-linker alkylated to cysteines of the reduced antibody (positions not given)
notes: DAR 3.9 by RP-HPLC, 4.1 by HIC
B10: HuMab-TF-098-vcMMAE (antibody, IgG1, V domains shown)
VH: B4 VH
VL: B4 VL
modifications: vcMMAE drug-linker alkylated to cysteines of the reduced antibody (positions not given)
notes: DAR 3.9 by RP-HPLC, 3.7 by HIC
B11: HuMab-TF-044 (antibody, V domains shown)
VH: QVQLVESGGGVVQPGRSLRLSCAASGFTFSDYAMHWVRQAPGKGLEWVAVIPYDGDNKYYADSVKGRFTISRDNSKNTLYLQMNSLRAEDTAVYYCAREDWGLEVDYWGQGALVTVSS
VL: AIQLTQSPSSLSASVGDRVTITCRASQGINSALAWYQQKPGKAPKLLIYDASSLESGVPSRFSGSGSGTDFTLTISSLQPEDFATYYCQQFNSYPLTFGGGTKVEIK

Experiments:
[1] = biological target: T1, membrane-bound tissue factor (TF) on cells (human, UniProt P13726 33-295); assay: cell-based or functional assay
[2] = biological target: T2, TFECDHis (extracellular domain of tissue factor, amino acid 1-251, with C-terminal His tag) (human, UniProt P13726 33-251); assay: ELISA, coated TFECDHis
T2 construct: range 1-251; The stated range 1-251 starts at residue 1 of the precursor; also called recombinant extracellular domain of TF
Method: (§1) Binding of the anti-TF ADCs to TF was measured by ELISA (coated recombinant extracellular domain of TF) and compared with binding of unconjugated anti-TF HuMabs. […] ELISA plates were washed three times with PBS containing 0.05% Tween-20 (PBST), blocked with 200 µL/well PBST at RT for 1 h while shaking (300 rpm), washed three times with PBST and emptied. Subsequently, 100 μl anti-TF ADCs or unconjugated anti-TF HuMabs were added in serial dilutions in PBST and incubated while shaking at RT for 90 min. ELISA plates were washed three times with PBST and emptied. […] Plates were washed three times with PBST, emptied and incubated with 100 μL ABTS solution (50 ml ABTS buffer [Roche] and one ABTS tablet [50 mg; Roche]). After incubation in the dark at RT for 30 min, the reaction was stopped by incubation with 100 μL per well oxalic acid (2% [w/v]; Riedel de Haen) in the dark, for 10 min. Plates were measured at OD 405 nm in an ELISA reader (Biotek Instruments, EL808 Absorbance Microplate Reader).
(§2) Binding curves were analyzed by non-linear regression (sigmoidal dose-response with variable slope) using GraphPad Prism 5 software (GraphPad Software, San Diego, CA, USA).

[3] = biological target: T1, membrane-bound tissue factor (TF) on …; assay: cell-based or functional assay; remark: listed apart in the source
[4] = biological target: T1, membrane-bound tissue factor (TF) on …; assay: FACS, inhibition of binding of 100 nM FVIIa to TF on MDA-MB-231 cells; one representative experiment
Method: MDA-MB-231 cells were washed in PBS to remove serum and plated in 96-well plates (100,000 cells per well). […] Cells were washed with FACS buffer and mean fluorescence intensity (MFI) was measured on a FACSCanto II (Becton Dickinson).

[5] = biological target: T2, TFECDHis (extracellular domain of …); assay: ELISA, coated TFECDHis; upper end of the group's range, tied to 011-vcMMAE by Table 7 (469)
Method: as §1, §2

[6] = biological target: T2, TFECDHis (extracellular domain of …); assay: ELISA, coated TFECDHis; lower end of the group's range, tied to 011 unconjugated by Table 7 (373)

Binder | % kill, A431 cells, anti-kappa-ETA' assay [1] [%] | % kill, BxPC3 cells, anti-kappa-ETA' assay [1] [%] | % kill, MDA-MB-231 cells, anti-kappa-ETA' assay [1] [%] | EC50 of cell killing, A431 cells, anti-kappa-ETA' assay [1] [ng/mL] | EC50 of cell killing, BxPC3 cells, anti-kappa-ETA' assay [1] [ng/mL] | EC50 of cell killing, MDA-MB-231 cells, anti-kappa-ETA' assay [1] [ng/mL] | EC50 [2] [ng/mL] | % kill at 10 µg/mL, A431 cells, ADC killing assay [3] [%] | % kill at 10 µg/mL, HPAF-II cells, ADC killing assay [3] [%] | % kill at 10 µg/mL, NCI-H441 cells, ADC killing assay [3] [%] | IC50 of cell killing, A431 cells, ADC killing assay [3] [ng/mL] | IC50 of cell killing, HPAF-II cells, ADC killing assay [3] [ng/mL] | IC50 of cell killing, NCI-H441 cells, ADC killing assay [3] [ng/mL] | IC50 [4] [ng/mL] | EC50 [5] [ng/mL] | EC50 [6] [ng/mL]
B1 | 92 | 98 | 88 | 34 | 15 | 23 | 377 | – | – | – | – | – | – | – | – | –
B2 | – | – | – | – | – | – | 464 | 90 | 73 | 51 | 46 | 4 | 416 | – | – | –
B3 | – | – | – | – | – | – | 416 | 73 | 74 | 62 | 83 | 15 | 416 | – | – | –
B4 | 95 | 99 | 96 | 0.09 | 0.013 | 0.72 | 422 | – | – | – | – | – | – | 1220 | – | –
B5 | – | – | – | – | – | – | 469 | 93 | 71 | 60 | 10 | 3 | 10 | – | 470 | –
B6 | – | – | – | – | – | – | 401 | 85 | 73 | 63 | 13 | 5 | 4 | – | – | –
B7 | 80 | 96 | 56 | 20 | 9.4 | – | – | – | – | – | – | – | – | – | – | –
B8 | 96 | 98 | 88 | 0.39 | 0.26 | 3 | 373 | – | – | – | – | – | – | 647 | – | 370
B9 | – | – | – | – | – | – | 431 | 78 | 72 | 53 | 22 | 5 | 5 | – | – | –
B10 | – | – | – | – | – | – | 426 | 92 | 71 | 60 | 9 | 1 | 10 | – | – | –
B11 | 66 | 96 | 44 | 98 | 15 | – | – | – | – | – | – | – | – | – | – | –
